Measurements published in the supplement of paper PMC10567573.

B1: SOAT2 (parent)
chain: SLGKQKVFIIRKSLLDELMEVQHF
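Note: lentivirally expressed fusions sorted by FACS into six bins by GFP to DsRed ratio, PSI derived from sequencing read proportions per bin multiplied by bin number.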

Variants of: B1
Experiment: protein stability index of a GFP-peptide fusion (GPS, HEK-293T) (PSI 1-6); higher = more stable
Conditions: c terminus: a fixed tail appended
For SLGKQKVFIYRKSLLDELMEVQHF [I10Y], the protein stability index was 1.48.
Work on SLGKQKVFIPRKSLLDELMEVQHF [I10P] yielded a protein stability index of 2.08.
SLGKQKVFIDRKSLLDELMEVQHF [I10D] showed a protein stability index of 2.41.
In the case of SLGKQKVFINRKSLLDELMEVQHF [I10N], the protein stability index is reported as 1.72.
Variant SLGKQKVFIARKSLLDELMEVQHF [I10A] has a protein stability index of 1.9.
In the case of SLGKQKVFIQRKSLLDELMEVQHF [I10Q], the protein stability index is reported as 1.87.
In the case of SLGKQKVFITRKSLLDELMEVQHF [I10T], the protein stability index is reported as 1.98.
SLGKQKVFIMRKSLLDELMEVQHF [I10M] showed a protein stability index of 3.04.
SLGKQKVFILRKSLLDELMEVQHF [I10L] gave a protein stability index of 2.38.
Variant SLGKQKVFIGRKSLLDELMEVQHF [I10G] has a protein stability index of 1.91.
With SLGKQKVFIERKSLLDELMEVQHF [I10E] the protein stability index was 1.47.
For SLGKQKVFIWRKSLLDELMEVQHF [I10W], the protein stability index was 1.89.
With SLGKQKVFISRKSLLDELMEVQHF [I10S] the protein stability index was 1.8.
SLGKQKVFICRKSLLDELMEVQHF [I10C] showed a protein stability index of 2.69.
Variant SLGKQKVFIKRKSLLDELMEVQHF [I10K] has a protein stability index of 1.48.
For SLGKQKVFIHRKSLLDELMEVQHF [I10H], the protein stability index was 1.65.
SLGKQKVFIRRKSLLDELMEVQHF [I10R] showed a protein stability index of 1.69.
In the case of SLGKQKVFIFRKSLLDELMEVQHF [I10F], the protein stability index is reported as 3.02.
Variant SLGKQKVFIVRKSLLDELMEVQHF [I10V] has a protein stability index of 2.52.
SLGKQKVFIIRKMLLDELMEVQHF [S13M] gave a protein stability index of 2.22.
Variant SLGKQKVFIIRKNLLDELMEVQHF [S13N] has a protein stability index of 2.86.
In the case of SLGKQKVFIIRKPLLDELMEVQHF [S13P], the protein stability index is reported as 1.99.
In the case of SLGKQKVFIIRKQLLDELMEVQHF [S13Q], the protein stability index is reported as 1.69.
SLGKQKVFIIRKTLLDELMEVQHF [S13T] showed a protein stability index of 2.4.
SLGKQKVFIIRKHLLDELMEVQHF [S13H] gave a protein stability index of 2.48.
Work on SLGKQKVFIIRKWLLDELMEVQHF [S13W] yielded a protein stability index of 1.73.
SLGKQKVFIIRKILLDELMEVQHF [S13I] gave a protein stability index of 3.3.
In the case of SLGKQKVFIIRKKLLDELMEVQHF [S13K], the protein stability index is reported as 1.67.
Variant SLGKQKVFIIRKCLLDELMEVQHF [S13C] has a protein stability index of 2.25.
For SLGKQKVFIIRKLLLDELMEVQHF [S13L], the protein stability index was 2.24.
With SLGKQKVFIIRKGLLDELMEVQHF [S13G] the protein stability index was 1.33.
With SLGKQKVFIIRKRLLDELMEVQHF [S13R] the protein stability index was 2.86.
SLGKQKVFIIRKYLLDELMEVQHF [S13Y] showed a protein stability index of 2.52.
For SLGKQKVFIIRKDLLDELMEVQHF [S13D], the protein stability index was 3.49.
Work on SLGKQKVFIIRKALLDELMEVQHF [S13A] yielded a protein stability index of 1.43.
In the case of SLGKQKVFIIRKELLDELMEVQHF [S13E], the protein stability index is reported as 2.55.
SLGKQKVFIIRKFLLDELMEVQHF [S13F] showed a protein stability index of 3.49.
Variant SLGKQKVFIIRKVLLDELMEVQHF [S13V] has a protein stability index of 1.88.
Variant SLGKQKVFIIRKSLLYELMEVQHF [D16Y] has a protein stability index of 3.13.
SLGKQKVFIIRKSLLQELMEVQHF [D16Q] gave a protein stability index of 2.44.
SLGKQKVFIIRKSLLFELMEVQHF [D16F] gave a protein stability index of 2.19.
With SLGKQKVFIIRKSLLMELMEVQHF [D16M] the protein stability index was 3.67.
In the case of SLGKQKVFIIRKSLLCELMEVQHF [D16C], the protein stability index is reported as 2.63.
SLGKQKVFIIRKSLLEELMEVQHF [D16E] gave a protein stability index of 2.39.
Variant SLGKQKVFIIRKSLLLELMEVQHF [D16L] has a protein stability index of 3.27.
With SLGKQKVFIIRKSLLWELMEVQHF [D16W] the protein stability index was 3.25.
Variant SLGKQKVFIIRKSLLNELMEVQHF [D16N] has a protein stability index of 3.3.
With SLGKQKVFIIRKSLLPELMEVQHF [D16P] the protein stability index was 2.02.
SLGKQKVFIIRKSLLTELMEVQHF [D16T] gave a protein stability index of 2.14.
With SLGKQKVFIIRKSLLAELMEVQHF [D16A] the protein stability index was 1.7.
For SLGKQKVFIIRKSLLGELMEVQHF [D16G], the protein stability index was 2.76.
Variant SLGKQKVFIIRKSLLSELMEVQHF [D16S] has a protein stability index of 2.09.
Variant SLGKQKVFIIRKSLLRELMEVQHF [D16R] has a protein stability index of 4.61.
For SLGKQKVFIIRKSLLHELMEVQHF [D16H], the protein stability index was 2.86.
SLGKQKVFIIRKSLLIELMEVQHF [D16I] gave a protein stability index of 2.98.
SLGKQKVFIIRKSLLDYLMEVQHF [E17Y] showed a protein stability index of 1.85.
SLGKQKVFIIRKSLLDALMEVQHF [E17A] gave a protein stability index of 3.06.
With SLGKQKVFIIRKSLLDFLMEVQHF [E17F] the protein stability index was 2.52.
In the case of SLGKQKVFIIRKSLLDVLMEVQHF [E17V], the protein stability index is reported as 3.36.
With SLGKQKVFIIRKSLLDMLMEVQHF [E17M] the protein stability index was 2.7.
SLGKQKVFIIRKSLLDCLMEVQHF [E17C] gave a protein stability index of 3.21.
Work on SLGKQKVFIIRKSLLDQLMEVQHF [E17Q] yielded a protein stability index of 3.16.
Work on SLGKQKVFIIRKSLLDNLMEVQHF [E17N] yielded a protein stability index of 2.79.
With SLGKQKVFIIRKSLLDWLMEVQHF [E17W] the protein stability index was 3.08.
Variant SLGKQKVFIIRKSLLDTLMEVQHF [E17T] has a protein stability index of 3.87.
In the case of SLGKQKVFIIRKSLLDPLMEVQHF [E17P], the protein stability index is reported as 2.21.
For SLGKQKVFIIRKSLLDLLMEVQHF [E17L], the protein stability index was 2.79.
Work on SLGKQKVFIIRKSLLDDLMEVQHF [E17D] yielded a protein stability index of 2.51.
SLGKQKVFIIRKSLLDGLMEVQHF [E17G] showed a protein stability index of 2.81.
Variant SLGKQKVFIIRKSLLDILMEVQHF [E17I] has a protein stability index of 2.86.
SLGKQKVFIIRKSLLDKLMEVQHF [E17K] showed a protein stability index of 2.17.
With SLGKQKVFIIRKSLLDSLMEVQHF [E17S] the protein stability index was 3.09.
Variant SLGKQKVFIIRKSLLDHLMEVQHF [E17H] has a protein stability index of 4.16.
In the case of SLGKQKVFIIRKSLLDRLMEVQHF [E17R], the protein stability index is reported as 2.41.
With SLGKQKVFIIRKSFLDELMEVQHF [L14F] the protein stability index was 2.52.
SLGKQKVFIIRKSPLDELMEVQHF [L14P] showed a protein stability index of 2.43.
Work on SLGKQKVFIIRKSCLDELMEVQHF [L14C] yielded a protein stability index of 1.85.
For SLGKQKVFIIRKSGLDELMEVQHF [L14G], the protein stability index was 2.2.
SLGKQKVFIIRKSALDELMEVQHF [L14A] showed a protein stability index of 2.72.
Work on SLGKQKVFIIRKSMLDELMEVQHF [L14M] yielded a protein stability index of 2.25.
SLGKQKVFIIRKSVLDELMEVQHF [L14V] showed a protein stability index of 2.22.
Variant SLGKQKVFIIRKSRLDELMEVQHF [L14R] has a protein stability index of 2.64.
With SLGKQKVFIIRKSNLDELMEVQHF [L14N] the protein stability index was 2.26.
SLGKQKVFIIRKSHLDELMEVQHF [L14H] gave a protein stability index of 2.86.
With SLGKQKVFIIRKSILDELMEVQHF [L14I] the protein stability index was 3.27.
SLGKQKVFIIRKSYLDELMEVQHF [L14Y] showed a protein stability index of 2.03.
For SLGKQKVFIIRKSELDELMEVQHF [L14E], the protein stability index was 2.
SLGKQKVFIIRKSTLDELMEVQHF [L14T] gave a protein stability index of 2.
With SLGKQKVFIIRKSDLDELMEVQHF [L14D] the protein stability index was 2.19.
SLGKQKVFIIRKSSLDELMEVQHF [L14S] showed a protein stability index of 3.11.
Variant SLGKQKVFIIRKSQLDELMEVQHF [L14Q] has a protein stability index of 1.64.
SLGKQKVFIIRKSKLDELMEVQHF [L14K] showed a protein stability index of 1.69.
In the case of SLGKQKVFIIRKSLLDEPMEVQHF [L18P], the protein stability index is reported as 1.38.
In the case of SLGKQKVFIIRKSLLDEIMEVQHF [L18I], the protein stability index is reported as 2.71.
